Source: patent publication US20210115142A1 (NANJING LEADS BIOLABS, published 2021)

Assays:
[1] = target: T1, Human PD-1 protein (ACRObiosystems, Cat #PD1-H5221) (human, UniProt Q15116 25-167); test: ELISA, human PD-1 coated at 25 ng/well, detection with HRP goat anti-human F(ab')2, OD450-620 [right panel]
T1 construct: Bought soluble protein
Method: (§1) An ELISA assay was performed for determination of the relative binding capacity of the fusion proteins to human PD-1.
(§2) Human PD-1 protein (ACRObiosystems, Cat #PD1-H5221) was immobilized onto 96-well plates in PBS (Hyclone, Cat #SH30256.01) by incubation overnight at 4° C., 25 ng/well. The plates were then blocked by incubation with 1% BSA in PBS for one hour at 37° C. After blocking, the plates were washed three times with PBST (PBS containing 0.05% Tween 20). […] After binding, the plates were washed three times with PBST, incubated for one hour at 37° C. with peroxidase-labeled Goat anti-human F(ab′)² antibody (Jackson Immuno Research, Cat #109-035-097) diluted 1/20,000 in binding buffer, washed again, developed with TMB (ThermoFisher, Cat #34028) for 15 minutes, and then stopped with 1M H₂SO₄. Each plate well contained 50 μL of solution at each step.

[2] = target: T1, Human PD-1 protein (ACRObiosystems, Cat …); test: ELISA, human PD-1 coated at 25 ng/well, detection with HRP goat anti-human F(ab')2, OD450-620 [left panel]
Method: as §1, §2

Human TGFβ1 protein = target: T2, Human TGFβ1 protein (human, UniProt P01137 279-390); test: ELISA, human TGFβ1 coated at 10 ng/well, detection with HRP goat anti-human Fc, OD450-620 [left panel]
T2 construct: also called TGFβ1 protein (Sino, 10804-HNAC); Novoprotein Inc., Cat #CA59
Method: The plates were then blocked by incubation with 1% BSA in PBS for one hour at 37° C. After blocking, the plates were washed three times with PBST (PBS containing 0.05% Tween 20). […] After binding, the plates were washed three times with PBST, incubated for one hour at 37° C. with peroxidase-labeled Goat anti-human Fc antibody (Jackson Immuno Research, Cat #109-035-098) diluted 1/20,000 in binding buffer, washed again, developed with TMB (ThermoFisher Cat #34028) for 15 minutes, and then stopped with 1M H₂SO₄. The absorbance at 450 nm-620 nm was determined.

T1 sequence (Q15116 25-167 limits assumed): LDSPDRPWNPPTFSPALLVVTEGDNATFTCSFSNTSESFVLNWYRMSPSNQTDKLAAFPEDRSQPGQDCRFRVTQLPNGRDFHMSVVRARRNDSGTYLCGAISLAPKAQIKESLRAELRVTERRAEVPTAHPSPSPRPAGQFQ
T2 sequence (P01137 279-390 limits assumed): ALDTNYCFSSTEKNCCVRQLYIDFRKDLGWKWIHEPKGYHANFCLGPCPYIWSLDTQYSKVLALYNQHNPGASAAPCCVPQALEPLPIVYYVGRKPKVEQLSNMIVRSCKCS

B1: anti-PD-1 antibody 21F12-1F6 (antibody, human IgG1, kappa, L234A L235A, V domains shown)
VH: QMQLVQSGAEVKKPGASVKLSCKASGYIFQSYYIHWVRQAPGQGLEWVGVINPSGGSTTYAQKFQGRVTMTRDTSISTAYMELSRLRSDDTVVYYCARGSYSSGWDYYYYYGMDVWGKGTLVTVSS
VL: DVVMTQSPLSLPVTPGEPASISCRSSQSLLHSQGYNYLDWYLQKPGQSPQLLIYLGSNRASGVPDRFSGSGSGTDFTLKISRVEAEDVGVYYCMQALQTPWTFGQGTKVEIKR
notes: Positive control in the PD-1 ELISA; also called anti-human PD-1; antibody 21F12-1F6 in PCT/CN2019/087287
- EC50 [1]: 0.0995 nM
- EC50 [2]: 0.0957 nM

B2: human TGFβR2-hFc (ACRObiosystems, Cat #TG2-H5252) (Fc fusion, UniProt P37173 23-159, looked up)
chain: TIPPHVQKSVNNDMIVTDNNGAVKFPQLCKFCDVRFSTCDNQKSCMSNCSITSICEKPQEVCVAVWRKNDENITLETVCHDPKLPYHDFILEDAASPKCIMKEKKKPGETFFMCSCSSDECNDNIIFSEEYNTSNPD
notes: Bought Fc fusion; also called positive control; not shown: human Fc of the bought fusion
- EC50 (Human TGFβ1 protein): 0.0652 nM
